Measured values: the supplement of paper PMC10126150
± gives the standard deviation of the averaged measurements.

test system: ATP; experiment: switch fluorescence ratio, 500 uM ATP over buffer (Cy3 cluster intensity, sum of 5 cycles each) (fold (ratio)); higher = stronger signal-on switching upon ATP binding; sequences stand for … in TCGTCGGCAGCGTCAGATGTGTATAAGAGACAGTTTTTTTTTTTTTTTTTTTTTTTTT…TC; conditions: aptamer strand: ATP DNA aptamer (quencher-CACCTGGGGGAGTATTGCGGAGGAAGG + anchor), 100 nM annealed; ATP concentration: 500 uM
Outline: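 Per cluster, summed Cy3 intensity from the target cycles was divided by that from the buffer cycles to give the fluorescence ratio, then averaged per switch-domain sequence. Clusters outside 100-1000 RFU were excluded. The Cy3-labelled switching-strand clusters, on a modified Illumina MiSeq flow-cell, were annealed to 100 nM quencher-labelled ATP aptamer and imaged in selection buffer, then after 15 min with 500 uM ATP at 22 °C, for five cycles with NaOH stripping and re-annealing between them.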
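Further: ATP exposure 15 min at 22 °C before imaging.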

| Sequence | switch fluorescence ratio |
| --- | --- |
| TTTTACCGAG | 1.047 ± 0.0032 |
| TTTTACCGTA | 1.04 ± 0.034 |
| TTTTACGTGA | 1.057 ± 0.0092 |
| TTTTACTATG | 0.9893 ± 0.0041 |
| TTTTACTCGA | 1.03 ± 0.014 |
| TTTTACTTAA | 1.28 ± 0.37 |
| TTTTACTTTA | 1.06 ± 0.032 |
| TTTTAGAGCC | 1.04 ± 0.043 |
| TTTTAGAGTG | 1 ± 0.036 |
| TTTTAGATCT | 1.02 ± 0.016 |
| TTTTAGGACC | 1 ± 0.025 |
| TTTTAGGAGC | 0.985 ± 0.023 |
| TTTTAGGAT | 1.004 ± 0.0021 |
| TTTTAGGATT | 1.016 ± 0.0018 |
| TTTTAGGGCT | 0.989 ± 0.03 |
| TTTTAGGGTC | 1.11 ± 0.2 |
| TTTTAGGTAT | 1.02 ± 0.038 |
| TTTTAGGTTA | 0.986 ± 0.027 |
| TTTTAGGTTT | 1.06 ± 0.16 |
| TTTTAGTAAC | 1.02 ± 0.017 |
| TTTTAGTCTT | 1.04 ± 0.078 |
| TTTTAGTTAC | 1.073 ± 0.0044 |
| TTTTAGTTAT | 1.04 ± 0.037 |
| TTTTAGTTCG | 1 ± 0.028 |
| TTTTATAAAG | 1 ± 0.022 |

| Sequence | switch fluorescence ratio |
| --- | --- |
| TTTTATAGCG | 0.99918 ± 0.00023 |
| TTTTATAGTT | 1 ± 0.023 |
| TTTTATATGC | 1.19 ± 0.27 |
| TTTTATATTA | 1 ± 0.04 |
| TTTTATCCCA | 1.004 ± 0.0067 |
| TTTTATCTAG | 1.01 ± 0.012 |
| TTTTATGAGA | 0.978 ± 0.031 |
| TTTTATGATT | 0.997 ± 0.04 |
| TTTTATGGTG | 0.994 ± 0.019 |
| TTTTATGGTT | 0.997 ± 0.032 |
| TTTTATGTAT | 1.06 ± 0.048 |
| TTTTATTAGA | 0.974 ± 0.065 |
| TTTTATTCTT | 0.987 ± 0.016 |
| TTTTATTGTT | 1.01 ± 0.034 |
| TTTTATTTGG | 0.983 ± 0.018 |
| TTTTCAAGAC | 1.31 ± 0.28 |
| TTTTCAATCT | 0.9933 ± 0.0073 |
| TTTTCACGCA | 1.57 ± 0.53 |
| TTTTCATACT | 1.07 ± 0.046 |
| TTTTCATTAA | 0.9932 ± 0.008 |
| TTTTCATTAG | 1.03 ± 0.026 |
| TTTTCCAAAG | 1.01 ± 0.055 |
| TTTTCCAATA | 1.52 ± 0.13 |
| TTTTCCAGCG | 1.03 ± 0.013 |
| TTTTCCCTAT | 1.41 ± 0.71 |

| Sequence | switch fluorescence ratio |
| --- | --- |
| TTTTCCCTGG | 1.46 ± 0.62 |
| TTTTCCGGGG | 1.04 ± 0.045 |
| TTTTCCGGGT | 1.02 ± 0.032 |
| TTTTCCGTAT | 1.18 ± 0.025 |
| TTTTCCTATG | 0.977 ± 0.019 |
| TTTTCCTCCC | 1.28 ± 0.24 |
| TTTTCCTCGC | 2.86 ± 0.27 |
| TTTTCCTGAT | 1 ± 0.017 |
| TTTTCCTTCT | 1.09 ± 0.089 |
| TTTTCCTTTC | 1.206 ± 0.011 |
| TTTTCGAAAT | 1.01 ± 0.024 |
| TTTTCGAATA | 1.009 ± 0.005 |
| TTTTCGATTA | 0.987 ± 0.016 |
| TTTTCGCTGG | 1.01 ± 0.049 |
| TTTTCGCTTA | 1.01 ± 0.03 |
| TTTTCGGACG | 1.03 ± 0.05 |
| TTTTCGGATG | 1.02 ± 0.028 |
| TTTTCGGCTT | 0.965 ± 0.031 |
| TTTTCGGGCA | 0.99223 ± 4.3e-05 |
| TTTTCGGTGG | 1.05 ± 0.019 |
| TTTTCGGTTA | 1.01 ± 0.015 |
| TTTTCTAAGG | 0.989 ± 0.085 |
| TTTTCTATTG | 1 ± 0.044 |
| TTTTCTATTT | 0.998 ± 0.018 |
| TTTTCTCGCT | 0.967 ± 0.02 |

| Sequence | switch fluorescence ratio |
| --- | --- |
| TTTTCTCTGT | 0.967 ± 0.023 |
| TTTTCTCTTC | 0.9808 ± 0.0054 |
| TTTTCTGACG | 1.03 ± 0.02 |
| TTTTCTGCGT | 1.02 ± 0.043 |
| TTTTCTGTTC | 0.988 ± 0.044 |
| TTTTCTTGCC | 1.09 ± 0.11 |
| TTTTCTTTTA | 1.001 ± 0.0032 |
| TTTTGAAACT | 0.9733 ± 0.0091 |
| TTTTGAAAGG | 0.976 ± 0.01 |
| TTTTGAAATC | 1.004 ± 0.0061 |
| TTTTGAAGGT | 0.997 ± 0.0099 |
| TTTTGACACG | 0.959 ± 0.03 |
| TTTTGACAGG | 1.03 ± 0.011 |
| TTTTGACGCG | 1.06 ± 0.052 |
| TTTTGAGAAT | 1.017 ± 0.0015 |
| TTTTGAGCCA | 0.983 ± 0.032 |
| TTTTGAGCGA | 1.07 ± 0.051 |
| TTTTGAGCTT | 1.04 ± 0.081 |
| TTTTGAGGG | 1.07 ± 0.061 |
| TTTTGAGGT | 1.02 ± 0.03 |
| TTTTGAGGTG | 1.06 ± 0.028 |
| TTTTGAGTAT | 0.967 ± 0.035 |
| TTTTGAGTT | 0.986 ± 0.076 |
| TTTTGAGTTA | 0.976 ± 0.039 |
| TTTTGATATT | 1.01 ± 0.035 |

| Sequence | switch fluorescence ratio |
| --- | --- |
| TTTTGATCGC | 1.36 ± 0.5 |
| TTTTGATGAG | 0.987 ± 0.021 |
| TTTTGATGGC | 1.01 ± 0.022 |
| TTTTGCACGC | 1.28 ± 0.2 |
| TTTTGCCATG | 1.04 ± 0.067 |
| TTTTGCCTCC | 1.09 ± 0.035 |
| TTTTGCGATC | 1.14 ± 0.021 |
| TTTTGCGCGC | 0.994 ± 0.029 |
| TTTTGCTCGT | 1.14 ± 0.2 |
| TTTTGCTGCA | 0.978 ± 0.013 |
| TTTTGCTGGA | 1.02 ± 0.031 |
| TTTTGCTGGG | 1.03 ± 0.11 |
| TTTTGCTGTT | 0.987 ± 0.033 |
| TTTTGGACTA | 1.05 ± 0.081 |
| TTTTGGCCAA | 1.01 ± 0.041 |
| TTTTGGCGAA | 0.989 ± 0.015 |
| TTTTGGCT | 1.02 ± 0.025 |
| TTTTGGCTCC | 0.99685 ± 0.00035 |
| TTTTGGGCAA | 1.31 ± 0.21 |
| TTTTGGGCAG | 0.971 ± 0.013 |
| TTTTGGGCGG | 0.99 ± 0.022 |
| TTTTGGGCGT | 1 ± 0.062 |
| TTTTGGGGCA | 1.07 ± 0.13 |
| TTTTGGGGTA | 0.993 ± 0.036 |
| TTTTGGGGTG | 1.05 ± 0.12 |

| Sequence | switch fluorescence ratio |
| --- | --- |
| TTTTGGGTG | 1.04 ± 0.04 |
| TTTTGGGTGT | 1.02 ± 0.059 |
| TTTTGGTAGT | 1.03 ± 0.063 |
| TTTTGGTCTT | 1 ± 0.028 |
| TTTTGGTTAA | 1.02 ± 0.041 |
| TTTTGGTTGC | 1.02 ± 0.032 |
| TTTTGGTTGG | 0.971 ± 0.028 |
| TTTTGGTTGT | 1.01 ± 0.029 |
| TTTTGGTTTC | 1.05 ± 0.11 |
| TTTTGTAATT | 1.1 ± 0.2 |
| TTTTGTATAA | 1.02 ± 0.02 |
| TTTTGTATTC | 1.05 ± 0.12 |
| TTTTGTCGCA | 0.9913 ± 0.0075 |
| TTTTGTCTGT | 1.01 ± 0.016 |
| TTTTGTGAAA | 0.997 ± 0.036 |
| TTTTGTGCGG | 0.98 ± 0.042 |
| TTTTGTGGAC | 0.996 ± 0.034 |
| TTTTGTGGCA | 0.987 ± 0.014 |
| TTTTGTGGTA | 1.03 ± 0.013 |
| TTTTGTTAGT | 0.997 ± 0.022 |
| TTTTGTTCCC | 1 ± 0.034 |
| TTTTGTTGCT | 0.956 ± 0.037 |
| TTTTGTTGT | 0.987 ± 0.024 |
| TTTTGTTTCC | 1.01 ± 0.062 |
| TTTTGTTTTG | 1 ± 0.043 |

| Sequence | switch fluorescence ratio |
| --- | --- |
| TTTTGTTTTT | 1.08 ± 0.44 |
| TTTTTAACAT | 0.993 ± 0.033 |
| TTTTTAACGA | 0.9688 ± 0.009 |
| TTTTTAATAT | 1.04 ± 0.062 |
| TTTTTACCAT | 1.04 ± 0.022 |
| TTTTTACTAA | 1.01 ± 0.011 |
| TTTTTACTCC | 1.48 ± 0.53 |
| TTTTTACTGG | 1 ± 0.03 |
| TTTTTAGAGG | 0.97 ± 0.041 |
| TTTTTAGGTT | 1.04 ± 0.064 |
| TTTTTATATC | 0.99 ± 0.028 |
| TTTTTATCCA | 0.976 ± 0.026 |
| TTTTTATGGC | 0.978 ± 0.028 |
| TTTTTATTCC | 1.02 ± 0.034 |
| TTTTTATTGA | 1 ± 0.034 |
| TTTTTCAAGA | 0.9897 ± 0.0088 |
| TTTTTCAGTT | 1 ± 0.033 |
| TTTTTCCGGG | 1.1 ± 0.11 |
| TTTTTCCGTT | 1.12 ± 0.27 |
| TTTTTCCTAT | 1.012 ± 0.0071 |
| TTTTTCGATT | 0.982 ± 0.026 |
| TTTTTCGTCT | 1.02 ± 0.028 |
| TTTTTCGTGG | 1.01 ± 0.022 |
| TTTTTCGTTT | 0.997 ± 0.034 |
| TTTTTCTACC | 1.035 ± 0.0091 |

| Sequence | switch fluorescence ratio |
| --- | --- |
| TTTTTCTAGT | 1.01 ± 0.02 |
| TTTTTCTCCC | 1.03 ± 0.049 |
| TTTTTGAAAC | 1.01 ± 0.027 |
| TTTTTGAAAT | 1.35 ± 0.6 |
| TTTTTGAACG | 1.02 ± 0.018 |
| TTTTTGAAGT | 1.01 ± 0.027 |
| TTTTTGAATG | 0.983 ± 0.032 |
| TTTTTGAATT | 1 ± 0.034 |
| TTTTTGACCT | 1.38 ± 0.24 |
| TTTTTGATAG | 0.9847 ± 0.0057 |
| TTTTTGATGG | 1.02 ± 0.037 |
| TTTTTGCAGT | 1.02 ± 0.082 |
| TTTTTGCATC | 1.2 ± 0.27 |
| TTTTTGCATG | 1.03 ± 0.047 |
| TTTTTGCCAC | 1 ± 0.043 |
| TTTTTGCGCG | 0.9974 ± 0.0065 |
| TTTTTGCGTT | 0.976 ± 0.037 |
| TTTTTGGACA | 0.993 ± 0.019 |
| TTTTTGGATG | 1.02 ± 0.057 |
| TTTTTGGCCT | 1.05 ± 0.052 |
| TTTTTGGCTT | 1.02 ± 0.093 |
| TTTTTGGGGA | 1 ± 0.025 |
| TTTTTGGTCC | 0.992 ± 0.011 |
| TTTTTGTAGG | 0.995 ± 0.016 |
| TTTTTGTGAA | 0.995 ± 0.033 |
